Measured values reported in patent US20230064978A1, “CYCLIC PEPTIDE RECEPTOR LANTHIONINE SYNTHETASE C-LIKE PROTEIN (LANCL) AND USES THEREOF” (LATERAL IP PTY LTD, priority 2019, published 2023).
Entries after “also recorded” stand apart in the source; their conditions may differ. Bridges are numbered along the chain shown (N, C = ends). Where no end group is shown, it is not given here.

Assays:
human recombinant LANCL1 = molecular target: T1, human recombinant LANCL1 (Homo sapiens, UniProt O43813); assay: In-gel fluorescence: photolabelling of recombinant LANCL1 with PAL probes, with or without excess competitor; assay type: binding
T1 construct: purchased ABCAM ab181923; host or cells: E. coli
Method: The in-gel fluorescence protocol can be briefly described as follows:
1. LANCL1 Labelling, Assay on 96 Well Plate, Volume of the Reaction 40 μl in PBS
3 μg/well of human recombinant LANCL1 (ABCAM catalog no. ab181923, 1 mg/ml; expressed in E. Coli and incorporating an N-terminal 23 amino acid hexaHis tag; UniProtKB/Swiss-Prot Accession no: O43813);
• Vehicle DMSO • ±LAT8881 (a cyclic peptide fragment of human growth hormone; SEQ ID NO:1) • SEQ ID NO:1) as competitor @ 25, 50, 100 or 200 μM, pre-incubation 10 min, 4 μl of a stock solution 10-fold concentrated • ±LAT9991-PAL, LAT7771-PAL or LAT9993-PAL probes @ 1 μM, incubation 30 min at room temperature on a plate agitator (protected from light), 4 μl of a stock solution @10 μM
• Irradiation @ 365 nm 20 min (4° C., on a support containing ice) Transfer 40 μl in a clean Eppendorf tube
• Reduction: DTT 10 mM, 30 min @ 56° C. • Alkylation: Iodoacetamide 30 mM, 45 min @ RT Click-iT AzideTamra of 60 μL samples
(§1) • Acetone Precipitation −20° C. ON • Dry pellet resuspended in 30 μL 1% SDS in 50 mM Tris-HCl pH 7.5 • Photolabeled LANCL1 was tagged with tetramethylrhodamine (TAMRA) azide @100 μM TAMRA azide by copper click chemistry using the Click-iT Protein Reaction Buffer Kit (ThermoFisher Scientific) during 30 minutes • Precipitation using the chloroform-methanol method, pellet was air-dried for 10 min at room temperature, resuspended in 30 μL SDS loading buffer (Bio Rad's XT Sample Buffer containing 2.5% v/v 2-mercaptoethanol) and heated (60° C., 30 min)
(§2) • SDS-PAGE (4-15% Criterion™ TGX Stain-Free™ Protein Gel, Bio Rad) • Analyzed by in-gel fluorescence scanning using a ChemiDoc™ MP Imaging System (Bio Rad) with a green LED light as an excitation source and a BP600/20 nm emission filter

DRG neurons = assay: Confocal microscopy of PAL probe binding in DRG cell cultures, spinal nerve ligation model; assay type: cell-based, Sprague Dawley rats; settings: specificity control; excess unlabeled competitor
Source text: LAT9991-PAL was used in conjunction with confocal microscopy to visualise the location of potential target(s), noting that analgesic agents can have activity at several sites, either on central or peripheral neurons, or on glial or inflammatory cells that are in proximity to neurons. To identify the cell types to which LAT9991-PAL binds, 3-day cell cultures of DRG from neuropathic or control sites were taken from animals with neuropathy due to spinal nerve ligation. Briefly, L5 and L6 spinal nerves of male Sprague Dawley rats were ligated to create a robust and long-lasting mechanical allodynia of the injured hind paw. Presence of neuropathic pain was confirmed 2 weeks post-spinal nerve ligation surgeries (day 14) using von Frey (VF) filaments (up-and-down method) applied on ipsilateral (injured) and contralateral (non-injured) paw). Live DRG cells were dissected out as described previously and incubated with LAT9991-PAL for 1 hour prior to UV irradiation to fix the binding in situ. […] As a specificity control, the binding of LAT9991-PAL to the neuropathic DRG was blocked in the presence of an excess amount of unlabeled LAT9991 peptide.

human recombinant LANCL2 = molecular target: T2, human recombinant LANCL2 (Homo sapiens, UniProt Q9NS86); assay: In-gel fluorescence: photolabelling of recombinant LANCL2 with PAL probe, with or without excess LAT8881; assay type: binding; settings: in-gel fluorescence after UV cross-linking
T2 construct: human recombinant LANCL2 (amino acid residues 1-450); GST (N); purchased ABCAM ab163277; host or cells: wheat germ
T2 sequence (Q9NS86 1-450): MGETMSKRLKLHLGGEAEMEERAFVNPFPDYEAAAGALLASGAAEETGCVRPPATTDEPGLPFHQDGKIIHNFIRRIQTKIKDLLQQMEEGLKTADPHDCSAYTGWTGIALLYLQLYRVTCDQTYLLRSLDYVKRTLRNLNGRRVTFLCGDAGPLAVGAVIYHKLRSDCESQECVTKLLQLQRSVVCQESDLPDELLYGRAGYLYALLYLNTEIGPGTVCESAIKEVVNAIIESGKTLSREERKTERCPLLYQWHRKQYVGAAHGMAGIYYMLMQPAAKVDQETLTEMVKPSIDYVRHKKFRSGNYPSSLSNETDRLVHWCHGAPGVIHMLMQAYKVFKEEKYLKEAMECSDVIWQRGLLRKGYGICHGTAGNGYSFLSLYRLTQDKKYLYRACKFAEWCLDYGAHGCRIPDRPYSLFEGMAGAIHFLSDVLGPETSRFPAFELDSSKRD
Method: (§3) An in-gel fluorescence protocol was followed to determine whether the cyclic peptides bound to LANCL2 and LANCL3. Briefly:
(§4) 1. LANCL2 and LANCL3 Labelling, Assay on 96 Well Plate, Volume of the Reaction 40 μl in PBS
• 1 μg/well of human recombinant LANCL2 (amino acid residues 1-450; ABCAM catalog no. ab163277, ˜0.07 mg/ml; expressed in wheat germ and incorporating an N-terminal GST tag; UniProt Accession no: Q9NS86);
• Vehicle DMSO • ±LAT8881 (a cyclic peptide fragment of human growth hormone; SEQ ID NO:1) • SEQ ID NO:1 as competitor @ 50, 100 or 200 μM, pre-incubation 10 min, 4 μl of a stock solution 10-fold concentrated • ±LAT9991-PAL probes @ 1 μM, incubation 30 min at room temperature on a plate agitator (protected from light), 4 μl of a stock solution @10 μM
(§5) • Irradiation @ 365 nm 20 min (4° C., on a support containing ice) • Transfer 40 μl in a clean Eppendorf tube
(§6) • Reduction: DTT 10 mM, 30 min @ 56° C. • Alkylation: Iodoacétamide 30 mM, 45 min @ RT Click-iT AzideTamra of 60 μL samples
as §1, with “for” for “during”, “Rad” for “Rad's”
as §2

LANCL1 = LANCL1 (Rattus norvegicus, UniProt Q9QX69); assay: Mass spectrometry of excised gel bands from PAL cross-linked homogenates (PALMS); assay type: binding; design: from tissue; host or cells: nerve tissue homogenate of neuropathic animals; settings: vs un-crosslinked samples (CU) and samples with excess LAT8881 (COMP); 37 kDa band
Source text: Having identified at least three molecular weight bands as representative of the potential targets, the 12-15 kD, 37 kD and 50 kD regions of the gel were excised, subjected to limited proteolysis and analysed by mass spectrometry to identify peptides from proteins that were differentially enriched. The detection of at least two different peptides from a protein that is enriched in the LAT9991-PAL cross-linked samples when compared to (i) the un-crosslinked samples and (ii) LAT9991-PAL in the presence of excess LAT8881 (SEQ ID NO:1; YLRIVQCRSVEGSCGF) was considered a positive signature. LAT9991-PAL, LAT9993-PAL and LAT7771-PAL were also used. LAT9993 (SEQ ID NO:41) has the amino acid sequence SCRSRPVESSC.

[1] = tested on: tissue homogenates of nerve from neuropathic animals; assay: PAL cross-linking to nerve tissue homogenates and gel separation; assay type: binding
Source text: Using a ligand driven approach, the present inventors utilized the photo-activatable cross-linking PAL from Evotec A.G. (Photo-Activated Labelling) technology that derivatizes the active cyclic peptides to allow UV-induced cross-linking to binding targets (described herein as peptide/SEQ ID NO:X-PAL). This allows subsequent detection in cells, gels of tissue isolates or in pull-down of the peptide/target complex for sequencing by mass spectroscopy (PALMS).
LAT9991-PAL was cross-linked to tissue homogenates of nerve from neuropathic animals.

human recombinant LANCL3 = molecular target: T3, human recombinant LANCL3 (Homo sapiens, UniProt Q6ZV70); assay: In-gel fluorescence: photolabelling of recombinant LANCL3 with PAL probe, with or without excess LAT8881; assay type: binding; settings: in-gel fluorescence after UV cross-linking
T3 construct: human recombinant LANCL3 (amino acid residues 1-420); 10xHis (N); Myc (C); purchased ABCAM ab163277; host or cells: E. coli
Method: as §3, §4
• […] of human recombinant LANCL3 (amino acid residues 1-420; ABCAM catalog no. ab163277, ˜0.07 mg/ml; expressed in E. Coli and incorporating an N-terminal 10×His tag and a C-terminal Mvc tag; UniProt Accession no: Q6ZV70);
• Vehicle DMSO • ±LAT8881 (a cyclic peptide fragment of human growth hormone; SEQ ID NO:1) • SEQ ID NO:1 as competitor @ 50, 100 or 200 μM, pre-incubation 10 min, […], incubation 30 min at room temperature on a plate agitator (protected from light), 4 μl of a stock solution @10 μM
as §5, §6
as §1, with “for” for “during”, “Rad” for “Rad's”
as §2

Chain of LANCL1 (Q9QX69 whole entry): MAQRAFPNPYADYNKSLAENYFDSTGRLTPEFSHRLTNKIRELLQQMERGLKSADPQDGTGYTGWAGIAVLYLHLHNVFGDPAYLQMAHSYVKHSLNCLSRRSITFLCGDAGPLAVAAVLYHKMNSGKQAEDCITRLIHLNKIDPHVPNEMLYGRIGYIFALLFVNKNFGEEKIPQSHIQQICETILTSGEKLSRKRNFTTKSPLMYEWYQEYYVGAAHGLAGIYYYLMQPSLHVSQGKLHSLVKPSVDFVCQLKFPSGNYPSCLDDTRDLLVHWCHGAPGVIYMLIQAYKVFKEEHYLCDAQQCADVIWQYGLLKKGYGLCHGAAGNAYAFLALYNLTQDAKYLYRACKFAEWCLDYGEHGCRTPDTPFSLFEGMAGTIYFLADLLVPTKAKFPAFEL
T1 sequence (O43813 with tags, fused parts or gaps): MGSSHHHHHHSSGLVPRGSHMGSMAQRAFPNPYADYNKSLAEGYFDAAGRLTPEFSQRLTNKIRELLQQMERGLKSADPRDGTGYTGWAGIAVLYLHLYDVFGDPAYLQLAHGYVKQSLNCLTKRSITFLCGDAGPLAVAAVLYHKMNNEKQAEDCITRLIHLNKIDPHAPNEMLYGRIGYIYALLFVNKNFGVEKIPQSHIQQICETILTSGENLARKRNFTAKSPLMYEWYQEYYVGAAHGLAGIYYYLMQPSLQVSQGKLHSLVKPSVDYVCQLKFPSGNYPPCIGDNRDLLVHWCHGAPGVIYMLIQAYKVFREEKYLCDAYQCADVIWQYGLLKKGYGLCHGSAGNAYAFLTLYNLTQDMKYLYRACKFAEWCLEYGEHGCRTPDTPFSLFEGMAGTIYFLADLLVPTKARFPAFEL
T3 sequence (Q6ZV70 whole entry, the tested form may be a part): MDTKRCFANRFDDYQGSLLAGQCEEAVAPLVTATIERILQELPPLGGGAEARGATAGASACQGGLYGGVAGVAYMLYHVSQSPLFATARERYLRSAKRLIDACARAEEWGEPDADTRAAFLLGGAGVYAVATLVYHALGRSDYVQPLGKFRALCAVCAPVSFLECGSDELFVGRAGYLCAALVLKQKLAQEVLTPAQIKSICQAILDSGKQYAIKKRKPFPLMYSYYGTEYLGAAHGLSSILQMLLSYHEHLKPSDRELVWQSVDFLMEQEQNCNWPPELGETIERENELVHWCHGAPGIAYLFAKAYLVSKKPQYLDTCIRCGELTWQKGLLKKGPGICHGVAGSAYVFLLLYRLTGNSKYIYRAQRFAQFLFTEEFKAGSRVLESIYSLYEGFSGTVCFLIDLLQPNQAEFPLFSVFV

Inhibition of LAT9991-PAL binding to recombinant LANCL1 by excess competitor (human recombinant LANCL1; probe LAT9991-PAL, excess unlabelled competitor)	Binding of PAL probe to recombinant LANCL1 (human recombinant LANCL1; in-gel fluorescence after UV (365 nm) cross-linking)	Binding of PAL probe to recombinant LANCL2 (human recombinant LANCL2)	Binding of PAL probe to recombinant LANCL3 (human recombinant LANCL3)	Substance	Block of LAT9991-PAL binding to neuropathic DRG by excess unlabeled peptide (DRG neurons)	LANCL1 bound / enriched in PAL probe cross-linked samples (mass spectrometry) (LANCL1)	Cross-linking of PAL probe to tissue homogenates of nerve from neuropathic animals [1]	Molecular weight ranges of targets stained after gel separation ([1]; PAL probe cross-linked to nerve homogenates)
inhibited	–	–	–	CRSVEGSCG (disulfide 1-8 (inferred)) [LAT9991]	blocked	–	–	–
–	bound to recombinant LANCL1	bound to recombinant LANCL2	–	LAT7771-PAL: cyclic peptide conjugate of LAT7771 (SEQ ID NO:52) with the PAL photo-activatable cross-linking group (CRIIHNNNC; disulfide 1-9 (inferred); also: ['PAL photo-activatable cross-linking group, structure and site not given here'])	–	enriched by several fold-changes; also recorded: bound to LANCL1	shown to cross-link	˜12-15 kD, ˜37 kD and ˜50 kD
–	–	–	bound to recombinant LANCL3	LAT9993-PAL: cyclic peptide conjugate of LAT9993 (SEQ ID NO:41) with the PAL photo-activatable cross-linking group (SCRSRPVESSC; disulfide 2-11 (inferred); also: ['PAL photo-activatable cross-linking group, structure and site not given here'])	–	enriched by several fold-changes; also recorded: bound to LANCL1	shown to cross-link	–
